Values quoted from earlier work as cited in publication PMC8189991.

Biological target: Asp96 (UniProt position 109, PLLLLDLALLV)
Assay: IR

## Bacteriorhodopsin (Halobacterium salinarum (not stated in the article; inferred))
  pKa: above 12
